Results: US20120213804A1 (Pfizer, published 2012)
Read-outs that look alike come from different tables or passages of the source.

Assays:
[1] = target: Fc-CD22 (UniProt P20273); assay: BIACORE, Fc-CD22 on CM5 chip, no G5/44
[2] = target: Fc-CD22 (UniProt P20273); assay: BIACORE, Fc-CD22 on CM5 chip; competitor G5/44 pre-bound
[3] = target: T1, human CD22 on the surface of B cells (Ramos, RL, Daudi, Raji lymphoma cells; B cell lymphoma tissue) (human, UniProt P20273 20-847); assay: cell-based or functional assay
[4] = target: T2, CD33 on CD22- CD33+ HL-60 leukemia cells (human, UniProt P20138 18-364); assay: flow cytometry
T2 construct: whole, on cells
Description: Purified human polyclonal IgG1 and IgG4 were also used as negative controls.

[5] = target: T3, CD22mFc (UniProt P20273 20-687, limits assumed); assay: SPR (BIACORE 2000), CD22mFc on CM5 chip, global 1:1 Langmuir fit with mass transfer
T3 construct: also called CD22-mFc constructs; not shown: mouse Fc (captured by anti-mouse Fc)
Experimental: (§1) Biosensor analyses were carried out using a BIACORE™ 2000 (BIAcore AB, Uppsala, Sweden). CD22mFc was covalently immobilized on the N-hydroxysuccinimide-activated carboxymethyl dextran-coated biosensor chip (CM5) using a standard amine-coupling chemistry at a protein density of approximately 2000 resonance units. […] After the binding phase, dissociation of the bound antibody was monitored by washing the chip with the HBS buffer over a 15 minute period. The antigenic surface was regenerated by washing the Biosensor chip with 15 μl of the regeneration buffer (10 mM NaOH and 200 mM NaCl) for 30 seconds, followed by a stabilization time of 2 minutes before the next cycle. Kinetic constants were calculated by nonlinear least square regression analysis using a 1:1 Langmuir binding curve fitting model and BIAevaluation program (version 3.0, BIAcore).

[6] = target: T1, human CD22 on the surface of B cells …; assay: cell-based or functional assay; remark: listed apart in the source
[7] = target: T1, human CD22 on the surface of B cells …; assay: cell-based or functional assay; remark: listed apart in the source
[8] = target: T3, CD22mFc; assay: SPR (BIACORE 2000), CD22mFc immobilized on CM5 chip
Experimental: as §1

[9] = target: T3, CD22mFc; assay: Biacore 2000; CD22mFc captured via immobilized anti-mouse Fc, antibody in the soluble phase; column head '~KD nM'
Experimental: (§2) All binding measurements were performed in the BIACORE™ 2000 instrument (Pharmacia Biosensor AB, Uppsala, Sweden). The assay was performed by capture of CD22mFc via the immobilized anti-mouse Fc. The antibody was in the soluble phase. Samples, standard, and controls (50 μl) were injected over immobilized anti-mouse Fc followed by antibody in the soluble phase. After each cycle, the surface was regenerated with 50 μl of 40 mM HCl at 30 μl/min. The kinetic analysis was performed using the BIAevaluation 3.1 software (Pharmacia).

[10] = target: T3, CD22mFc; assay: BIACORE 2000, CD22mFc captured via anti-mouse Fc
Experimental: as §2

T2 sequence (P20138 18-364): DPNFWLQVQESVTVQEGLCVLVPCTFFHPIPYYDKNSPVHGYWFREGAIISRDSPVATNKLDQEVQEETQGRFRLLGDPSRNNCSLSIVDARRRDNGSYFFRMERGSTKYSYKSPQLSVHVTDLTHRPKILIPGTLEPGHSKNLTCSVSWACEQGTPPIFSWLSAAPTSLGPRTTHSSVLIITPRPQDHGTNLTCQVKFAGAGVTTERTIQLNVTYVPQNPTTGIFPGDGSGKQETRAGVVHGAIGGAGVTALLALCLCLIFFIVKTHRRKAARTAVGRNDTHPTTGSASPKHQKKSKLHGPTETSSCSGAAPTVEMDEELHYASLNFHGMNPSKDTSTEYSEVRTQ

anti-CD22 antibody 4 KB128 (Dako Corp)
Binding of 2nd mAb without G544 adjusted for background (RU) [1]: 739 RU | Inhibition by G544 (%) [2]: 0% | Response 2 with G544 (combined response, RU) [2]: 1340 RU | Response 3 (Response 2-1) (RU) [2]: 652 RU | Response 3 adjusted for OFF rate of G544 (RU) [2]: 736 RU

anti-CD22 antibody BLCAM, HD239 (Santa Cruz Biotech)
Binding of 2nd mAb without G544 adjusted for background (RU) [1]: 19.3 RU | Inhibition by G544 (%) [2]: 91% | Response 2 with G544 (combined response, RU) [2]: 629 RU | Response 3 (Response 2-1) (RU) [2]: -81.8 RU | Response 3 adjusted for OFF rate of G544 (RU) [2]: 1.7 RU

anti-CD22 antibody SHCL-1, Leu 14 (Becton Dickinson)
Binding of 2nd mAb without G544 adjusted for background (RU) [1]: 29.3 RU | Inhibition by G544 (%) [2]: 69% | Response 2 with G544 (combined response, RU) [2]: 580 RU | Response 3 (Response 2-1) (RU) [2]: -74.5 RU | Response 3 adjusted for OFF rate of G544 (RU) [2]: 9 RU

anti-CD19 antibody BU12 (Celltech)
Inhibition by G544 (%) [2]: 0% | Response 2 with G544 (combined response, RU) [2]: 603 RU | Response 3 (Response 2-1) (RU) [2]: -83.5 RU | Response 3 adjusted for OFF rate of G544 (RU) [2]: 0 RU

anti-CD22 antibody To 15 (Dako Corp)
Binding of 2nd mAb without G544 adjusted for background (RU) [1]: 615 RU | Inhibition by G544 (%) [2]: 7% | Response 2 with G544 (combined response, RU) [2]: 1160 RU | Response 3 (Response 2-1) (RU) [2]: 487 RU | Response 3 adjusted for OFF rate of G544 (RU) [2]: 570 RU

B1: CMC-544 (G5/44-NAc-gamma-calicheamicin DMH AcBut conjugate), preparation not specified (antibody, human IgG4 S228P, kappa, V domains shown)
VH: EVQLVQSGAEVKKPGASVKVSCKASGYRFTNYWIHWVRQAPGQGLEWIGGINPGNNYATYRRKFQGRVTMTADTSTSTVYMELSSLRSEDTAVYYCTREGYGNYGAWFAYWGQGTLVTVSS
VL: DVQVTQSPSSLSASVGDRVTITCRSSQSLANSYGNTFLSWYLHKPGKAPQLLIYGISNRFSGVPDRFSGSGSGTDFTLTISSLQPEDFATYYCLQGTHQPYTFGQGTKVEIKR
modifications: NAc-gamma calicheamicin DMH AcBut conjugated to the antibody; chain and residues not stated
notes: also called NAc-Gamma Calicheamicin DMH AcBut-G5/44 immunoconjugate
killing of CD22+ target cells relative to the unconjugated drug [3]: ≥ 10 times | binding result [4]: no binding | Kd [5]: 200 pM

B2: CMC-544, CMC-544 process, loading 65 µg/mg (antibody, human IgG4 S228P, kappa, V domains shown)
VH: EVQLVQSGAEVKKPGASVKVSCKASGYRFTNYWIHWVRQAPGQGLEWIGGINPGNNYATYRRKFQGRVTMTADTSTSTVYMELSSLRSEDTAVYYCTREGYGNYGAWFAYWGQGTLVTVSS
VL: DVQVTQSPSSLSASVGDRVTITCRSSQSLANSYGNTFLSWYLHKPGKAPQLLIYGISNRFSGVPDRFSGSGSGTDFTLTISSLQPEDFATYYCLQGTHQPYTFGQGTKVEIKR
modifications: NAc-gamma calicheamicin DMH AcBut conjugated, loading 65 µg/mg; chain and residues not stated
growth inhibition IC50, Daudi #1 [6]: 0.32 µg/mL of antibody | growth inhibition IC50, RL #1 [6]: 0.09 µg/mL of antibody | growth inhibition IC50, RL #2 [6]: 0.18 µg/mL of antibody | growth inhibition IC50, Raji #1 [6]: 7.69 µg/mL of antibody | growth inhibition IC50, Raji #2 [6]: 8.62 µg/mL of antibody | growth inhibition IC50, Ramos #1 [6]: 3.08 µg/mL of antibody | growth inhibition IC50, Ramos #2 [6]: 4 µg/mL of antibody | growth inhibition IC50, Daudi #1 [7]: 21 pM of calicheamicin | growth inhibition IC50, RL #1 [7]: 6 pM of calicheamicin | growth inhibition IC50, RL #2 [7]: 12 pM of calicheamicin | growth inhibition IC50, Raji #1 [7]: 500 pM of calicheamicin | growth inhibition IC50, Raji #2 [7]: 560 pM of calicheamicin | growth inhibition IC50, Ramos #1 [7]: 200 pM of calicheamicin | growth inhibition IC50, Ramos #2 [7]: 260 pM of calicheamicin

B3: humanized anti-CD22 antibody G5/44 (antibody, human IgG4 S228P, kappa, V domains shown)
VH: EVQLVQSGAEVKKPGASVKVSCKASGYRFTNYWIHWVRQAPGQGLEWIGGINPGNNYATYRRKFQGRVTMTADTSTSTVYMELSSLRSEDTAVYYCTREGYGNYGAWFAYWGQGTLVTVSS
VL: DVQVTQSPSSLSASVGDRVTITCRSSQSLANSYGNTFLSWYLHKPGKAPQLLIYGISNRFSGVPDRFSGSGSGTDFTLTISSLQPEDFATYYCLQGTHQPYTFGQGTKVEIKR
notes: also called Humanized G5/44; gL1gH7
Ka [8]: 7.9e+09 M⁻¹ | Kd [8]: 130 pM | koff [8]: 2.8e-05 s⁻¹ | kon [8]: 220000 M⁻¹ s⁻¹ | binding result [4]: no binding | Kd [5]: 235 pM

B4: CMC-544 (21 µg/mg) (CMA-676 procedure) (antibody, human IgG4 S228P, kappa, V domains shown)
VH: EVQLVQSGAEVKKPGASVKVSCKASGYRFTNYWIHWVRQAPGQGLEWIGGINPGNNYATYRRKFQGRVTMTADTSTSTVYMELSSLRSEDTAVYYCTREGYGNYGAWFAYWGQGTLVTVSS
VL: DVQVTQSPSSLSASVGDRVTITCRSSQSLANSYGNTFLSWYLHKPGKAPQLLIYGISNRFSGVPDRFSGSGSGTDFTLTISSLQPEDFATYYCLQGTHQPYTFGQGTKVEIKR
modifications: NAc-gamma calicheamicin DMH AcBut conjugated, loading 21 µg/mg; chain and residues not stated
Ka [8]: 8.1e+09 M⁻¹ | Kd [8]: 120 pM | koff [8]: 6.1e-05 s⁻¹ | kon [8]: 490000 M⁻¹ s⁻¹

B5: CMC-544, CMA-676 process, loading 35 µg/mg (antibody, human IgG4 S228P, kappa, V domains shown)
VH: EVQLVQSGAEVKKPGASVKVSCKASGYRFTNYWIHWVRQAPGQGLEWIGGINPGNNYATYRRKFQGRVTMTADTSTSTVYMELSSLRSEDTAVYYCTREGYGNYGAWFAYWGQGTLVTVSS
VL: DVQVTQSPSSLSASVGDRVTITCRSSQSLANSYGNTFLSWYLHKPGKAPQLLIYGISNRFSGVPDRFSGSGSGTDFTLTISSLQPEDFATYYCLQGTHQPYTFGQGTKVEIKR
modifications: NAc-gamma calicheamicin DMH AcBut conjugated, loading 35 µg/mg; chain and residues not stated
growth inhibition IC50, Daudi #1 [6]: 2.29 µg/mL of antibody | growth inhibition IC50, RL #1 [6]: 0.86 µg/mL of antibody | growth inhibition IC50, RL #2 [6]: 1.14 µg/mL of antibody | growth inhibition IC50, Raji #2 [6]: 14.9 µg/mL of antibody | growth inhibition IC50, Ramos #1 [6]: 3.71 µg/mL of antibody | growth inhibition IC50, Daudi #1 [7]: 80 pM of calicheamicin | growth inhibition IC50, RL #1 [7]: 30 pM of calicheamicin | growth inhibition IC50, RL #2 [7]: 40 pM of calicheamicin | growth inhibition IC50, Raji #2 [7]: 520 pM of calicheamicin | growth inhibition IC50, Ramos #1 [7]: 130 pM of calicheamicin

B6: CMC-544 (87 µg/mg) (CMC-544 procedure) (antibody, human IgG4 S228P, kappa, V domains shown)
VH: EVQLVQSGAEVKKPGASVKVSCKASGYRFTNYWIHWVRQAPGQGLEWIGGINPGNNYATYRRKFQGRVTMTADTSTSTVYMELSSLRSEDTAVYYCTREGYGNYGAWFAYWGQGTLVTVSS
VL: DVQVTQSPSSLSASVGDRVTITCRSSQSLANSYGNTFLSWYLHKPGKAPQLLIYGISNRFSGVPDRFSGSGSGTDFTLTISSLQPEDFATYYCLQGTHQPYTFGQGTKVEIKR
modifications: NAc-gamma calicheamicin DMH AcBut conjugated, loading 87 µg/mg; chain and residues not stated
Ka [8]: 6.6e+09 M⁻¹ | Kd [8]: 150 pM | koff [8]: 6.9e-05 s⁻¹ | kon [8]: 460000 M⁻¹ s⁻¹

B7: chimeric 5/44 variant K60R (antibody, V domains shown)
VH: EVQLQQSGTVLARPGASVKMSCKASGYRFTNYWIHWVKQRPGQGLEWIGGINPGNNYTTYRRNLKGKATLTAVTSASTAYMDLSSLTSEDSAVYYCTREGYGNYGAWFAYWGQGTLVTVSS
VL: DVVVTQTPLSLPVSFGDQVSISCRSSQSLANSYGNTFLSWYLHKPGQSPQLLIYGISNRFSGVPDRFTGSGSGTDFTLKISTIKPEDLGMYYCLQGTHQPYTFGGGTKLEIKR
notes: Human kappa / human gamma-4 constant regions; The position is as printed
Kd [9]: ~200 pM

B8: chimeric 5/44 variant T57A (antibody, V domains shown)
VH: EVQLQQSGTVLARPGASVKMSCKASGYRFTNYWIHWVKQRPGQGLEWIGGINPGNNYATYKRNLKGKATLTAVTSASTAYMDLSSLTSEDSAVYYCTREGYGNYGAWFAYWGQGTLVTVSS
VL: DVVVTQTPLSLPVSFGDQVSISCRSSQSLANSYGNTFLSWYLHKPGQSPQLLIYGISNRFSGVPDRFTGSGSGTDFTLKISTIKPEDLGMYYCLQGTHQPYTFGGGTKLEIKR
notes: Human kappa / human gamma-4 constant regions; The position is as printed (CDR-H2, Kabat definition); also called construct T57A
affinity improvement compared to the chimeric 5/44 (fold) [10]: ~5 fold | Kd [9]: ~70 pM

B9: chimeric 5/44 variant N55Q (antibody, V domains shown)
VH: EVQLQQSGTVLARPGASVKMSCKASGYRFTNYWIHWVKQRPGQGLEWIGGINPGNQYTTYKRNLKGKATLTAVTSASTAYMDLSSLTSEDSAVYYCTREGYGNYGAWFAYWGQGTLVTVSS
VL: DVVVTQTPLSLPVSFGDQVSISCRSSQSLANSYGNTFLSWYLHKPGQSPQLLIYGISNRFSGVPDRFTGSGSGTDFTLKISTIKPEDLGMYYCLQGTHQPYTFGGGTKLEIKR
notes: as for B7
Kd [9]: ~300 pM
